Measurements reported in patent US20230192896A1 (published 2023).
Values belong to the binder of their own block, whether it stands above or below them.

Molecular target: free FIXa (activated Factor IX) (UniProt P00740 47-191; P00740 227-461)
Assay: BLI

B2: BIIB-9-460 (antibody, V domains shown)
VH: QVQLVQSGAEVKKPGASVKVSCKASGYTFTSYYMHWVRQAPGQGLEWMGIINPSGGSTSYAQKFQGRVTMTRDTSTSTVYMELSSLRSEDTAVYYCARDISTDGESSLYYYMDVWGKGTTVTVSS
VL: EIVMTQSPATLSVSPGERATLSCRASQSVSSNLAWYQQKPGQAPRLLIYGASTRATGIPARFSGSGSGTEFTLTISSLQSEDFAVYYCQQHDNFPFTFGGGTKVEIK
- Kd: 20.1 nM

B3: BIIB-9-585 (antibody, V domains shown)
VH: QLQLQESGPGLVKPSETLSLTCTVSGGSISSSDYYWGWIRQPPGKGLEWIGSIYYSGSTYYNPSLKSRVTISVDTSKNQFSLKLSSVTAADTAVYYCAREVGTYYYGLDFWFDPWGQGTLVTVSS
VL: DIQMTQSPSSVSASVGDRVTITCRASQGISSWLAWYQQKPGKAPKLLIYAASSLQSGVPSRFSGSGSGTDFTLTISSLQPEDFATYYCQQANSYPITFGGGTKVEIK
- Kd: 12.4 nM

B7: BIIB-9-1269 (antibody, V domains shown)
VH: QVQLVQSGAEVKKPGASVKVSCKASGYTFTSYYMHWVRQAPGQGLEWMGIINPSGGSTSYAQKFQGRVTMTRDTSTSTVYMELSSLRSEDTAVYYCARDRGQYYHFDLWGRGTLVTVSS
VL: DIQMTQSPSSVSASVGDRVAITCRASQGISSWLAWYQQKPGKAPKLLIYAASSLQSGVPSRFSGSGSGTDFTLTISSLQPEDFATYYCQQASSFPFTFGGGTKVEIK
- Kd: 45.1 nM

B8: BIIB-9-629 (antibody, V domains shown)
VH: QVQLVQSGAEVKKPGASVKVSCKASGYTFTSYYMHWVRQAPGQGLEWMGVINPSGGSTSYAQKFQGRVTMTRDTSTSTVYMELSSLRSEDTAVYYCARDPSQDYATGTGWFDPWGQGTLVTVSS
VL: DIQLTQSPSSLSASVGDRVTITCQASQDISNYLNWYQQKPGKAPKLLIYDASNLETGVPSRFSGSGSGTDFTFTISSLQPEDIATYYCQQLDSLPPTFGGGTKVEIK
- Kd: 25.6 nM

B9: BIIB-9-1283 (antibody, V domains shown)
VH: QVQLVQSGAEVKKPGASVKVSCKASGYTFTSYYMVWVRQAPGQGLEWMGIINPSGGSTSYAQKFQGRVTMTRDTSTSTVYMELSSLRSEDTAVYYCARVPTYRYSYLAFDIWGQGTMVTVSS
VL: DIQMTQSPSSVSASVGDRVTITCRASQGISSWLAWYQQKPGKAPKLLIYAASSLQSGVPSRFSGSGSGTDFTLTISSLQPEDFATYYCQQASSFPPTFGGGTKVEIK
- Kd: 37 nM

B10: BIIB-9-415 (antibody, V domains shown)
VH: QVQLVQSGAEVKKPGASVKVSCKASGYTFTSYYMHWVRQAPGQGLEWMGIINPSGGSTSYAQKFQGRVTMTRDTSTSTVYMELSSLRSEDTAVYYCARDGLSSGYYWDNWGQGTLVTVSS
VL: DIQMTQSPSSVSASVGDRVTITCRASQGIDSWLAWYQQKPGKAPKLLIYAASSLQSGVPSRFSGSGSGTDFTLTISSLQPEDFATYYCQQGDAFPFTFGGGTKVEIK
- Kd: 14.4 nM

B13: BIIB-9-1270 (antibody, V domains shown)
VH: QVQLVQSGAEVKKPGASVKVSCKASGYTFTSYYMHWVRQAPGQGLEWMGIINPSGGSTSYAQKFQGRVTMTRDTSTSTVYMELSSLRSEDTAVYYCARDTGGYAFDIWGQGTLVTVSS
VL: EIVLTQSPATLSLSPGERATLSCRASQSVSSYLAWYQQKPGQAPRLLIYDASNRATGIPARFSGSGSGTDFTLTISSLEPEDFAVYYCQQSADFPFTFGGGTKVEIK
- Kd: 24.2 nM

The remaining binders from weak to strong by Kd, led by results:

- Kd: 45.6 nM
B5: BIIB-9-1272 (antibody, V domains shown)
VH: QVQLVQSGAEVKKPGASVKVSCKASGYTFTSYYMHWVRQAPGQGLEWMGIINPSGGSTSYAQKFQGRVTMTRDTSTSTVYMELSSLRSEDTAVYYCARDTGGYAFDIWGQGTLVTVSS
VL: DIQMTQSPSSVSASVGDRVTITCRASQGISSWLAWYQQKPGKAPKLLIYAASSLQSGVPSRFSGSGSGTDFTLTISSLQPEDFATYYCQQASSFPFTFGGGTKVEIK

- Kd: 41.2 nM
B16: BIIB-9-1284 (antibody, V domains shown)
VH: QVQLVQSGAEVKKPGASVKVSCKASGYTFTSYYMVWVRQAPGQGLEWMGIINPSGGSTSYAQKFQGRVTMTRDTSTSTVYMELSSLRSEDTAVYYCARVPTYRYSYLAFDIWGQGTMVTVSS
VL: EIVLTQSPATLSVSPGERATLSCRASQSVGSNLAWYQQKPGQAPRLLIYGASTRATGIPARFSGSGSGTEFTLTISSLQSEDFAVYYCQQHNHLPITFGGGTKVEIK

- Kd: 28.4 nM
B14: BIIB-9-1274 (antibody, V domains shown)
VH: QVQLVQSGAEVKKPGASVKVSCKASGYTFTSYYMHWVRQAPGQGLEWMGIINPSGGSTSYAQKFQGRVTMTRDTSTSTVYMELSSLRSEDTAVYYCARDTGGYAFDIWGQGTLVTVSS
VL: DIQMTQSPSSVSASVGDRVTITCRASQGISSWLAWYQQKPGKAPKLLIYAASSLQSGVPSRFSGSGSGTDFTLTISSLQPEDFATYYCQQANSFPFTFGGGTKVEIK

- Kd: 23.2 nM
B12: BIIB-9-615 (antibody, V domains shown)
VH: QVQLVQSGAEVKKPGASVKVSCKASGYTFTSYYMHWVRQAPGQGLEWMGIINPSGGSTSYAQKFQGRVTMTRDTSTSTVYMELSSLRSEDTAVYYCARDSPSSSSYWSLDLWGRGTLVTVSS
VL: EIVLTQSPATLSLSPGERATLSCRASQSVSSYLAWYQQKPGQAPRLLIYDASNRATGIPARFSGSGSGTDFTLTISSLEPEDFAVYYCQQSCHWPWTFGGGTKVEIK

- Kd: 19.8 nM
B6: BIIB-9-465 (antibody, V domains shown)
VH: QVQLVQSGAEVKKPGASVKVSCKASGYTFTSYYMVWVRQAPGQGLEWMGIINPSGGSTSYAQKFQGRVTMTRDTSTSTVYMELSSLRSEDTAVYYCARSPTDGYYFDLWGRGTLVTVSS
VL: DIQMTQSPSTLSASVGDRVTITCRASQSINSWLAWYQQKPGKAPKLLISDASSLESGVPSRFSGSGSGTEFTLTISSLQPDDFATYYCQQYEIFPFTFGGGTKVEIK

- Kd: 16.6 nM
B15: BIIB-9-414 (antibody, V domains shown)
VH: QVQLVQSGAEVKKPGASVKVSCKASGYTFTSYYMHWVRQAPGQGLEWMGIINPSGGSTSYAQKFQGRVTMTRDTSTSTVYMELSSLRSEDTAVYYCARDPYSYGMYYFDYWGQGTLVTVSS
VL: DIQMTQSPSSVSASVGDRVTITCRASQGISSWLAWYQQKPGKAPKLLIYAASSLQSGVPSRFSGSGSGTDFTLTISSLQPEDFATYYCQQGDVFPFTFGGGTKVEIK

- Kd: 16 nM
B11: BIIB-9-606 (antibody, V domains shown)
VH: QVQLVQSGAEVKKPGASVKVSCKASGYTFTSYYMHWVRQAPGQGLEWMGIINPSGGSTSYAQKFQGRVTMTRDTSTSTVYMELSSLRSEDTAVYYCARTKWSSSPYGMDVWGQGTTVTVSS
VL: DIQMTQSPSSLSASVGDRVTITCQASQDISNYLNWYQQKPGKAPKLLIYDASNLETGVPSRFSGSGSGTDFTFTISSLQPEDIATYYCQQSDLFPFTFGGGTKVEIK

- Kd: 11.3 nM
B4: BIIB-9-590 (antibody, V domains shown)
VH: QVQLVQSGAEVKKPGASVKVSCKASGYTFTSYYMHWVRQAPGQGLEWMGIINPSGGSTSYAQKFQGRVTMTRDTSTSTVYMELSSLRSEDTAVYYCARDQEWAYYGMDVWGQGTTVTVSS
VL: EIVLTQSPATLSLSPGERATLSCRASQSVSSYLAWYQQKPGQAPRLLIYDASNRATGIPARFSGSGSGTDFTLTISSLEPEDFAVYYCQQVDNFPLTFGGGTKVEIK

- Kd: 5.46 nM
B1: BIIB-9-425 (antibody, V domains shown)
VH: QVQLVQSGAEVKKPGASVKVSCKASGYTFTSYYMHWVRQAPGQGLEWMGIINPSGGSTSYAQKFQGRVTMTRDTSTSTVYMELSSLRSEDTAVYYCAREPTWDVAYDYWGQGTLVTVS
VL: EIVLTQSPGTLSLSPGERATLSCRASQSVSSDYLAWYQQKPGQAPRLLIYGASSRATGIPDRFSGSGSGTDFTLTISRLEPEDFAVYYCQQYDSHPYTFGGGTKVEIK
